We go through 4 molecules from doi:10.1101/2022.09.29.510028 (bioRxiv, 2022).

“And” between values parts separate entries of the source, which are not always exact repeats. Equal entries are not always repeated. Where two headings read alike, the source gives them in different places.

Sequences and labels used below:
B1: NPM1_(120) (N-terminal domain, residues 1-120) (domain or fragment)
chain: MEDSMDMDMSPLRPQNYLFGCELKADKDYHFKVDNDENEHQLSLRTVSLGAGAKDELHIVEAEAMNYEGSPIKVTLATLKMSVQPTVSLGGFEITPPVVLRLKCGSGPVHISGQHLVAVE
B2: NPM1_(188) (NTD and the acidic regions of the IDR, residues 1-188) (domain or fragment)
chain: MEDSMDMDMSPLRPQNYLFGCELKADKDYHFKVDNDENEHQLSLRTVSLGAGAKDELHIVEAEAMNYEGSPIKVTLATLKMSVQPTVSLGGFEITPPVVLRLKCGSGPVHISGQHLVAVEEDAESEDEEEEDVKLLSISGKRSAPGGGSKVPQKKVKLAADEDDDDDDEEDDDEDDDDDDFDDEEAEE
B3: NPM1_(ΔIDR) (NTD and CTD linked without the IDR) (other)
chain: MEDSMDMDMSPLRPQNYLFGCELKADKDYHFKVDNDENEHQLSLRTVSLGAGAKDELHIVEAEAMNYEGSPIKVTLATLKMSVQPTVSLGGFEITPPVVLRLKCGSGPVHISGQHLVAVEPSSVEDIKAKMQASIEKGGSLPKVEAKFINYVKNCFRMTDQEAIQDLWQWRKSL

Holding throughout (assay): native MS
Data set [1] concerns the molecule itself.
Data set [2] deals with B1.
Data set [3] addresses Nucleophosmin 1, full-length (FL NPM1) (human).
Data set [4] concerns the molecule itself. The source holds these as a separate data set.

One may read the stoichiometry N as the number of molecules, sites or subunits per partner or assembly. Consider B1, for which the “stoichiometry N” value in the data set “native MS [1]” is not below 25 subunits.

Take RRRREGKTDYYARKRLV [rpL5_(21-37) (residues 21-37 of ribosomal protein L5)]: the binding result in data set [2] and in data set [3] was “binds” each time.

Turning to B2, in “native MS [4]”, the “stoichiometry N” value is 5 and 10.

B3: the “stoichiometry N” value in “native MS [4]” was 10 and 5.
